Data published in patent publication US20230302104A1, “TREATMENT AND/OR PREVENTION OF A DISEASE OR A SYNDROME RELATED TO A VIRUS INFECTION” (priority 2020, published 2023).

Assays:
[1] = target: T1, furin (Homo sapiens, UniProt P09958); conditions: Jean et al. 1998; cited from earlier work
T1 construct: purchased NEB

[2] = test system: SARS-CoV-2 spike pseudotyped lentivirus entry in HeLa cells expressing ACE2 only; format: cell-based; conditions: 10 µM
[3] = test system: IFNγ-mediated activation of human microglial HMC3-MHCII^Luc cells; experiment: IFNγ-mediated microglial activation, MHCII-driven luciferase; format: cell-based; conditions: MHCII-driven luciferase normalized to cell viability, FIG. 19
[4] = test system: trypsin; format: biochemical; conditions: 45 min
[5] = target: T2, elastase (ELA1) from pig pancreas (Sus scrofa, UniProt P00772); format: biochemical
T2 construct: elastase (ELA1) from pig pancreas 0.25U/mL; purchased molecular probes (Sigma-Aldrich) E-12056; host or cells: pig pancreas
T2 sequence (P00772 27-266): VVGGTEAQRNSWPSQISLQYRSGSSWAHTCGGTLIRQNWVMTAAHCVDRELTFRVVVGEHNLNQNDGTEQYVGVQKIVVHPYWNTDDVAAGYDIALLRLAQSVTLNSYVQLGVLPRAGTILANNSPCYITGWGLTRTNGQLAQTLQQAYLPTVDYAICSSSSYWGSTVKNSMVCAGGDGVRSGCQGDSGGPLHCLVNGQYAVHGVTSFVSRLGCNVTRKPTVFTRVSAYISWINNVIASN

[6] = target: T3, TMPRSS2 (Homo sapiens, UniProt O15393); format: biochemical; conditions: 45 min
T3 construct: purchased creative biomart
T3 sequence (O15393 whole entry): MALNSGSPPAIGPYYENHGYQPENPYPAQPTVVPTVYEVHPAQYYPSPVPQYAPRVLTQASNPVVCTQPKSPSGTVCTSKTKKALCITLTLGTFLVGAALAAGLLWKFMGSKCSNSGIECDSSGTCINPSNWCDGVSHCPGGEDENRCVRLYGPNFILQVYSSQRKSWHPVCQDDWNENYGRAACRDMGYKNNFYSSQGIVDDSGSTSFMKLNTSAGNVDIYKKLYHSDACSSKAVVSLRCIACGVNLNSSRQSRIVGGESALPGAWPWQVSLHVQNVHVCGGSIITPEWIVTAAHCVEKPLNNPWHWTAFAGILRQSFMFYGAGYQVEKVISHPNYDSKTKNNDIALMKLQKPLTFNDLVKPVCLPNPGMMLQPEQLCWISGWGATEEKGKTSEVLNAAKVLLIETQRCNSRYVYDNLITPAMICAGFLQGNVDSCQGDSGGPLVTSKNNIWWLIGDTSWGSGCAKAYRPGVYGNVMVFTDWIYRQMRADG

[7] = target: T4, cathepsin L (Homo sapiens, UniProt P07711); format: biochemical; conditions: 45 min
T4 construct: purchased R&D Systems
T4 sequence (P07711 114-333): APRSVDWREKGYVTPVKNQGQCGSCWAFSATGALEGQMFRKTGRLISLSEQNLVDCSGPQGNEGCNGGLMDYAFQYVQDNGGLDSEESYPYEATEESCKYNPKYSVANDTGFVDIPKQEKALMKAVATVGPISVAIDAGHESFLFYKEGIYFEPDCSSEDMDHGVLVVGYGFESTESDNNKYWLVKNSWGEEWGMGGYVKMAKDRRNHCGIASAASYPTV

[8] = target: T5, PC1 (Homo sapiens, UniProt P29120); format: biochemical; conditions: 45 min
T5 construct: purchased R&D Systems
T5 sequence (P29120 111-753): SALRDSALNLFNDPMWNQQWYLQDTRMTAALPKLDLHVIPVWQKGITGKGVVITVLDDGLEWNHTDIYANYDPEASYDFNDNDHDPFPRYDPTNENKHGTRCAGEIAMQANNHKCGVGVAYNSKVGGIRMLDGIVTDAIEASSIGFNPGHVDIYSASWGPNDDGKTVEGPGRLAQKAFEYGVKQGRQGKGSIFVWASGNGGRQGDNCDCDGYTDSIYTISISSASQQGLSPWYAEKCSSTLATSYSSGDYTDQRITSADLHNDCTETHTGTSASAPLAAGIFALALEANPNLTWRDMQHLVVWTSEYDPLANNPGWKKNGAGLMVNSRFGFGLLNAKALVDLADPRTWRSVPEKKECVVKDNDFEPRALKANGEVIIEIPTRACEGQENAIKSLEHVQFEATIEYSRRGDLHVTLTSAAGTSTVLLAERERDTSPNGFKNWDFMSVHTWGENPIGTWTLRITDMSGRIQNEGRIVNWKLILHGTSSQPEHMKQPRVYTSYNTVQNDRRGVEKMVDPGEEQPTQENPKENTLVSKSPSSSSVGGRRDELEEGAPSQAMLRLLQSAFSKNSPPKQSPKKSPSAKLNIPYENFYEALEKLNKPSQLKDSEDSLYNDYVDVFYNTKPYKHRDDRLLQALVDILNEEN

[9] = target: T1, furin; format: biochemical; conditions: 45 min
[10] = target: T6, cathepsin B (Homo sapiens, UniProt P07858); format: biochemical; conditions: 45 min
T6 construct: purchased R&D Systems

[11] = test system: ACE2/SARS-CoV-2 spike mediated cell fusion of HeLa cells; format: cell-based, human; conditions: 24 h
[12] = test system: MERS-CoV pseudovirus entry in Caco2 human colorectal adenocarcinoma cells; format: cell-based
[13] = target: T7, matriptase (Homo sapiens, UniProt Q9Y5Y6); format: biochemical; conditions: 45 min
T7 construct: purchased R&D Systems
T7 sequence (Q9Y5Y6 1-855): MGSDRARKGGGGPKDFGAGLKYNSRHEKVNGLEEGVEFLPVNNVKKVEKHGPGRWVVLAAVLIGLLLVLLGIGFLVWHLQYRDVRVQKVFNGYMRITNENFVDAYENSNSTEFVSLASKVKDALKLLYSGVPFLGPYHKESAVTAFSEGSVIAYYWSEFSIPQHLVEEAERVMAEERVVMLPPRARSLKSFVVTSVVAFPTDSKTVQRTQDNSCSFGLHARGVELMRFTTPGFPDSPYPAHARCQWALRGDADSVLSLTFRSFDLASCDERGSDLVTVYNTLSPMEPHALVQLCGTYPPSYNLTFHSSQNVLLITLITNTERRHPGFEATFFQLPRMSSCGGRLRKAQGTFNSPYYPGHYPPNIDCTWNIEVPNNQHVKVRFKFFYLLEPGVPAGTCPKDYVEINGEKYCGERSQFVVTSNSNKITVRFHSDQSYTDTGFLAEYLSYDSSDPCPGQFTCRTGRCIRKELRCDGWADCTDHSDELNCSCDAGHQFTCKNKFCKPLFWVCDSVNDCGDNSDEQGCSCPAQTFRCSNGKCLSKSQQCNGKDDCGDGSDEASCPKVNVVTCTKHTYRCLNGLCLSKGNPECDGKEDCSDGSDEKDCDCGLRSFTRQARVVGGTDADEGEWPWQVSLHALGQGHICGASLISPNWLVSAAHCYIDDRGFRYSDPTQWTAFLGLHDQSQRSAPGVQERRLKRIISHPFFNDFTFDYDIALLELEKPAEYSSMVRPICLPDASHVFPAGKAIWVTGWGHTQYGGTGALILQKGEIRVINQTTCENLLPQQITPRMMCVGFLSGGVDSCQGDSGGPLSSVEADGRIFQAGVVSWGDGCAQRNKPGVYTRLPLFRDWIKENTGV

T1 sequence (P09958 108-794): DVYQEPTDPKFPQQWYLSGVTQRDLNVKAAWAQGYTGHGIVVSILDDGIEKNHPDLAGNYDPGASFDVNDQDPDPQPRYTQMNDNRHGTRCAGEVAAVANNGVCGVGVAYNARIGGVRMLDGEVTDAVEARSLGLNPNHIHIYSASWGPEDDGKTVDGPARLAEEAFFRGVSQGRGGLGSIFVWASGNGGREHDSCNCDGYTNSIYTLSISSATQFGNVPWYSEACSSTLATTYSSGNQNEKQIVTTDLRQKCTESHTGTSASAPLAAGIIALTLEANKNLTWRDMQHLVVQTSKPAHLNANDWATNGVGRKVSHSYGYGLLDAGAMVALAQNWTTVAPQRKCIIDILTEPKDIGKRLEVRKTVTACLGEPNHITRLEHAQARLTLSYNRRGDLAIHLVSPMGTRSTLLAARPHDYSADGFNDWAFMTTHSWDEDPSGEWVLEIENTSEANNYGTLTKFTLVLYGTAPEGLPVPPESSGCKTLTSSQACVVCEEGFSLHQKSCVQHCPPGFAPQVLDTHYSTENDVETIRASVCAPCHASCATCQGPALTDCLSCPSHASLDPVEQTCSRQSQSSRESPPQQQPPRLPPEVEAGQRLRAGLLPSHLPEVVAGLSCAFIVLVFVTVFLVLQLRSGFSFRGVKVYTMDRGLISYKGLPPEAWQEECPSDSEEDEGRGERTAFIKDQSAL

Row | Substance | activity on furin [1] | inhibitory effect on SARS-CoV-2 pseudoviral cell-entry [2] | IFNγ-mediated microglial activation (inflammation) [3] | trypsin protease activity [4] | elastase protease activity [5] | TMPRSS2 protease activity [6] | cathepsin L protease activity [7] | PC1 protease activity [8] | IFNγ-mediated microglial activation (inflammation) ([3]; listed as recombinant AAT) | furin protease activity [9] | cathepsin B protease activity [10] | inhibitory effect on SARS-CoV-2 spike mediated cell fusion [11] | MERS-CoV pseudovirus entry [12] | matriptase protease activity [13]
1 | Alpha1-antitrypsin Portland | strong and selective activity |  |  |  |  |  |  |  |  |  |  |  |  | 
2 | plasma derived AAT |  | up to 25% | Effect is observed |  |  |  |  |  |  |  |  |  |  | 
3 | rhAAT |  |  | reduces inflammation | inhibits trypsin protease activity | inhibits elastase protease activity | inhibits TMPRSS2 protease activity | inhibits cathepsin L protease activity | inhibits PC1 protease activity | Effect is observed | inhibits furin protease activity | inhibits cathepsin B protease activity | more effectively than plasma derived AAT | inhibits viral entry of several viruses | inhibits matriptase protease activity
